Three molecules from patent publication US20210388068A1 can be followed below.

The target of test [1] is MBP-CfaE-N Arg145Ala mutant (enterotoxigenic Escherichia coli (ETEC)) (UniProt P25734). The experiment in a line: ELISA on plate-bound MBP-CfaE-N Arg145Ala mutant, OD405. (An ELISA detects its analyte on a solid surface through an enzyme-linked reagent.)
Test [2] concerns the target MBP-CfaE-N Asn127Ala mutant (enterotoxigenic Escherichia coli (ETEC)) (UniProt P25734). The experiment in a line: ELISA on plate-bound MBP-CfaE-N Asn127Ala mutant, OD405.
Test [3] addresses MBP-CfaE-N Arg67Ala mutant (enterotoxigenic Escherichia coli (ETEC)) (UniProt P25734). Put plainly: ELISA on plate-bound MBP-CfaE-N Arg67Ala mutant, OD405.
Test [4] has as its target MBP-CfaE-N Thr91Ala mutant (enterotoxigenic Escherichia coli (ETEC)) (UniProt P25734). The experiment in a line: ELISA on plate-bound MBP-CfaE-N Thr91Ala mutant, OD405.

B1: anti-CfaE HuMab 68-90 (antibody, human IgG1, V domains shown)
VH: QVQLQQWGAGLLKPSETLSLTCAVYGGSFSAYYWSWIRQPPGKGLEWIGEINHSGNTNYNPSLESRVTISVDTSKNQVSLKQSSVTAADTAVYYCARNWGPNAFDIWGRGTMVTVSS
VL: DIQMTQSPSSVSASVGDRVTITCRASQDITSWLVWYQHKPGKAPKLLIYAASSLQSGVPSRFSGSGSGTDFTLTISSLQPEDFATYYCQQANIFPYTFGQGTKLEIK
Regarding B1, the EC50 (read off the curve) was found to be 0.03 µg/mL in test [1], 0.01 µg/mL in test [2], 0.04 µg/mL in test [3] and 0.02 µg/mL in test [4].

B2: anti-CfaE HuMab 68-61 (antibody, human IgG1, V domains shown)
VH: QVQLVQSGAEVKNPGSSVRVSCEASGGTFSSFAISWVRQAPGQGLEWMGRIIPILDIVKYAQRFQGRVTISADKSTSTAYMELSSLRSEGTAVYYCARDDIAGSDFDIWGQGTMVTVSS
VL: DIQMTQSPSSLSASVGDRVTITCRASQGISSWLAWYQQKPEKAPKSLIYAASSLQSGVPSRFSGSGSGTDFTLTISSLQPEDFATYYCQQYTSYPYTFGQGTKLEIK
On to B2, for which the EC50 (read off the curve) in test [1] was 0.03 µg/mL; in test [3], 0.04 µg/mL.

B3: anti-CfaE HuMab 68-48 (antibody, human IgG1, V domains shown)
VH: QVQLQQWGAGLLKPSETLSLTCAVYGGSFSGYSWSWIRQSPGKGLEWIGEIYHSGSTNYNPSLKSRVTISGDTSKNQFSLKLSSVTAADTAVYYCARENLQGYYYYGMDVWGQGTTVTVSS
VL: AIQLTQSPSSLSASVGDRVTITCRASQGISSSLAWYQQKPGKAPKLLIYDASSLESGVPSRFSGSGSGTDFTLTISSLQPEDFATYYCQQFNSYPRTFGQGTKVEIK
Regarding B3, the concentration giving a half-maximal response (EC50 (read off the curve)) in test [1] was found to be 0.03 µg/mL; in test [3], 0.04 µg/mL.

Usually EC50 (read off the curve) stands for the concentration giving half of the maximal effect. A higher EC50 (read off the curve) goes with lower potency in that assay.
